From patent US8507656B2, “Stabilized angiopoietin-2 antibodies and uses thereof” (MedImmune Limited, priority 2008, dated 2013) come the findings set out here.

Assay [1] addresses T1, Ang-2 (Homo sapiens, UniProt O15123).
T1 construct: purchased R & D Systems
T1 sequence (O15123 19-496): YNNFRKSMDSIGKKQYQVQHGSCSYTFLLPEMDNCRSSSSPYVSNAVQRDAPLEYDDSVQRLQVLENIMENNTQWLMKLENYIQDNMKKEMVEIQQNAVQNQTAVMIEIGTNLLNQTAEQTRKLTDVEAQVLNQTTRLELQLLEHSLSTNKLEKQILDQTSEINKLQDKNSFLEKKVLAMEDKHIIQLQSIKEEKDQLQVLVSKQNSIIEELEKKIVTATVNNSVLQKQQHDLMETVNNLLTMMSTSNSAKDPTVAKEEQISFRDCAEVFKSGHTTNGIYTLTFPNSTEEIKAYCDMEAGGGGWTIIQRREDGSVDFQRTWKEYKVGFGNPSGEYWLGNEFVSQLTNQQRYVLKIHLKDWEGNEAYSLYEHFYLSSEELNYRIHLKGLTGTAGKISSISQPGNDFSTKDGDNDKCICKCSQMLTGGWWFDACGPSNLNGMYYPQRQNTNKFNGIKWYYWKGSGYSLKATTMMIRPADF
Briefly: Competitive Tie-2 Fc/Ang2 ELISA. It counts as binding. Particulars: competition with immobilized Tie-2; IgG1 or IgG2 format. The procedure:
In this example the Ang-2 antibody, 3.19.3, and a modified 3.19.3 antibody comprising a C49T (MEDI1/5) substitution were analyzed for Ang-2 binding in a competitive ELISA format assay.
Competitive Tie-2 Fc/Ang2 ELISA: Maxisorp ELISA plates (Nunc, Rochester, N.Y.) were coated with 100 μl of 4 μg/ml Tie-2 Fc (R & D Systems, Minneapolis, Minn.) in 0.1M carbonate buffer pH 9.4 (Pierce, Rockford, Ill.) and incubated overnight at 4° C. The following day, plates were blocked for 1 hour at room temperature with 200 μl of phosphate buffered saline (PBS) (Invitrogen, Carlsbad, Calif.) containing 0.5% bovine serum albumin (BSA) (Sigma, St. Louis, Mo.) and 0.1% Tween-20 (Sigma, St. Louis, Mo.). Plates were washed 3 times with wash buffer (PBS containing 0.05% Tween-20). 50 μl of 11-point serial tertiary dilutions (30 μg/ml high concentration) of 3.19.3 or modified anti-Ang2 antibody were plated, with PBS as a negative control. For antibody capture, 50 μl of 200 ng/ml Biotin Ang2 (R & D Systems, Minneapolis, Minn.) were added and plates were incubated for 2 hours at room temperature. Plates were washed 3 times with wash buffer. Following the wash, 100 ul of 1:5000 streptavidin HRP (Pierce, Rockford, Ill.) dilution in wash buffer were added and incubated for 1 hour at room temperature. […] Optical densities were measured at 450 nm with a microplate reader (Molecular Devices, Sunnyvale, Calif.).
(In general: In an ELISA, binding on a coated surface is turned into a signal by an enzyme label.)

The subject of assay [2] is retinal angiogenesis. As to the kind of experiment: Retinal vascularization in mouse pups. Type of assay: in vivo, CD1 pups. How it is done:
[…] At p10, pups were anesthetized with isoflurane and then perfused with 12.5 mg/ml FITC-dextran (Vector Labs). A small slit was made in the cornea and the entire eye was removed from the optic cup before placing into 10% neutral buffered formalin. After 1 hour fixation in formalin, eyes were briefly rinsed in PBS and then placed in a dish of PBS for dissection. Retinas were carefully dissected and cut into a clover leaf formation prior to mounting onto a glass slide with Vectashield (Vector Labs). Images of flatmounts were examined and acquired using fluorescence microscopy (Nikon) with attached digital camera system.

In assay [3] the test system is FGF2 mediated angiogenesis. As to the kind of experiment: FGF2-induced Matrigel plug assay. Type of assay: in vivo, athymic mouse. How it is done: The anti-Ang-2 antibody, MEDI1/5 was evaluated for anti-angiogenic effects in a FGF2 (basic FGF)-induced Matrigel™ plug assay. Recombinant murine FGF2 (rmFGF basic; R&D Systems) was pre-mixed with Matrigel™ (reduced growth factor, phenol red-free; Trevigen) at 1 μg/ml. Each 5-6 week old female athymic mouse was subcutaneously implanted with 500 gl of FGF2/Matrigel™ mixture. Antibody MEDI1/5 was administered 10 minutes prior to FGF2/Matrigel™ implantation and continued every three days given intraperitoneal at 1, 10, and 20 mg/kg for a total of 3 doses. The extent of angiogenesis was assessed after 10 days by measuring dextran functioning vessels. Mice were intervenously injected with 100 gl FITC-Dextran (250,000MW; Sigma) at 25 mg/ml in saline. Twenty minutes post FITC-Dextran injection, mice are humanely euthanized and plugs dissected out. Plugs are then placed in lysing matrix tubes A (MP Biomedicals) containing 1 ml of PBS and homogenized on FastPrep machine (MP Biomedicals) for 60 seconds at 6.0 M/S. Samples were then centrifuged at 10,000 rpm for 5 minutes and supernatant collected. 200 μl of each sample (in duplicates) was then placed into a white, clear bottom 96 well plate and FITC output was read on EnVision instrument (Perkin Elmer).
For histology purposes, plugs were harvested and placed into 10% neutral-buffered formalin, processed and then paraffin embedded. The paraffin embedded tissues were then sectioned and stained with hematoxylin and eosin.

The test system of assay [4] is glucose 6 phosphate isomerase (G6PI) arthritis. As to the kind of experiment: G6PI arthritis disease model, prophylactic. Type of assay: in vivo, male DBA/1J mice.
For assay [5] the test system is unchanged. As to the kind of experiment: G6PI arthritis disease model, therapeutic. Type of assay: in vivo, male DBA/1J mice. The settings on record: after onset of clinical disease, MEDI1/5 alone, etanercept both doses. The procedure: The effect of treatment with MEDI 1/5 with or without etanercept was evaluated following onset of clinical disease in the glucose 6 phosphate isomerase (G6PI) arthritis disease model. G6PI-induced arthritis was induced in male DBA/1J mice and animals dosed therapeutically with test treatments.
Materials and Methods: The mice in this study were prepared similarly as presented in Example 12.
Dosing: This was a rolling admissions study: once an animal reached a clinical score of 3.5 to 5.0, it was randomly assigned to treatment groups (as outlined below) and dosing began. The day of initial dosing became study day 0 for that animal. Treatment groups were similar to those presented in Example 12.
Termination: Study was terminated 12 days post treatment initiation. No further endpoints were assessed on these animals.

“Also recorded” adds a separate entry of the source.

B1: MEDI1/5: anti-Ang-2 antibody with MEDI1 light chain (SEQ ID No. 3) and MEDI5 heavy chain (SEQ ID No. 7); isotype not stated (antibody)
VH: QVQLVESGGGVVQPGRSLRLSCAASGFTFTNYGMHWVRQAPGKGLEWVAVISHDGNNKYYVDSVKGRFTISRDNSKNTLYLQMNSLRAEDTAVYYCAREGIDFWSGLNWFDPWGQGTLVTVSS
light: EIVLTQSPGTLSLSPGERATLSCRASQSITGSYLAWYQQKPGQAPRLLITGASSWATGIPDRFSGSGSGTDFTLTISRLEPEDFAVYYCQQYSSSPITFGQGTRLEIKRTVAAPSVFIFPPSDEQLKSGTASVVCLLNNFYPREAKVQWKVDNALQSGNSQESVTEQDSKDSTYSLSSTLTLSKADYEKHKVYACEVTHQGLSSPVTKSFNRGEC
Consider B1, for which the “binding profile for Ang-2 compared to 3.19.3 (in words)” value in assay [1] is on record as “very similar binding profile”. For the same molecule, the “extent of retina vasculature (in words)” value in assay [2] (MEDI1/5 0.3 mg/kg) is given as “extend to the outer edge of retina”. In addition, the “retinal angiogenesis (in words)” value in assay [2] (MEDI1/5 0.3, 1.0 and 10 mg/kg i.p. at p1, p3, p5, retinas at p10) is “dose-dependent inhibition of retinal angiogenesis; also recorded: inhibited in a dose-dependent fashion”. Moreover, the “vessels in plugs, hematoxylin and eosin staining (in words)” value in assay [3] (FGF2+MEDI1/5 plugs vs FGF2 plugs alone) is recorded as “fewer vessels; also recorded: lower level of vascularization”. The “amount of FITC-dextran present in plugs” value in assay [3] (MEDI1/5 1, 10, and 20 mg/kg i.p., 3 doses, FGF2 1 μg/ml plugs (FGF2 alone approximately 0.78 μg)) lay within 0.05 to 3 µg. In addition, in assay [3] (MEDI1/5 1, 10 or 20 mg/kg i.p., vs FGF2 plugs), the “FITC-dextran content / angiogenesis in plugs (in words)” value is “significant reduction in FITC-dextran; also recorded: significant reduction in angiogenesis”. Moreover, the “% Disease free joints” value in assay [4] (10 mg/kg MEDI1/5, 10 mg/ml Isotype control (so in the source), 10 mg/kg) was 31%. Besides, the “clinical signs of disease progression (arthritic score) (in words)” value in assay [4] (single agents) is on record as “Reductions in clinical signs of disease progression; also recorded: reduction”; in assay [5] it was “modest reductions in clinical signs of disease progression”.
